US20210130436A1
Values joined by “and” are separate entries in the source; they are usually repeats but may differ in a detail not shown here. Equal entries are not always repeated.

How the values were obtained:
[1] = biological target: CD28, endogenously expressed on Jurkat/IL2 reporter cells (human) (UniProt P10747); test: flow cytometry, Jurkat/IL2 reporter cells (endogenous CD28)
[2] = biological target: PD-1 (PDCD1) (Homo sapiens (Human)) (UniProt Q15116); test: cell-based or functional assay
Sequence of PD-1 (PDCD1) (Homo sapiens (Human)) (Q15116 21-288): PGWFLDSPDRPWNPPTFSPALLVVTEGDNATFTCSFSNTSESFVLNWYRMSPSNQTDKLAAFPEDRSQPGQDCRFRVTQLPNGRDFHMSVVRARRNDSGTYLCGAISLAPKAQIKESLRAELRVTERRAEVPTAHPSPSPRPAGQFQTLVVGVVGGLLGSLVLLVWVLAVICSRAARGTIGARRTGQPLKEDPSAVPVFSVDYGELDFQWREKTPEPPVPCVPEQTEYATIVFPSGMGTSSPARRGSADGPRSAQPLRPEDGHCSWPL

[3] = biological target: human CTLA4 (full-length, expressed on CHO cells) (human) (UniProt P16410); test: flow cytometry, CHO cells expressing huCTLA4, PE anti-human Fc
Sequence of human CTLA4 (full-length, expressed on CHO cells) (human) (P16410 36-223): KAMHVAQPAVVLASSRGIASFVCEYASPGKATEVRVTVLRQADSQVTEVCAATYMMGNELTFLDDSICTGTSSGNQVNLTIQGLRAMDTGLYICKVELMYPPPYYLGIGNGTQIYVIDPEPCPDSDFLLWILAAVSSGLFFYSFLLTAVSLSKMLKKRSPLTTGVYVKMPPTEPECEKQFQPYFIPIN

[4] = biological target: human PD-L1, full length, expressed on transfected HEK293 cells (human) (UniProt Q9NZQ7); test: flow cytometry, HEK293 cells transfected with human PD-L1
Sequence of human PD-L1, full length, expressed on transfected HEK293 cells (human) (Q9NZQ7 19-290): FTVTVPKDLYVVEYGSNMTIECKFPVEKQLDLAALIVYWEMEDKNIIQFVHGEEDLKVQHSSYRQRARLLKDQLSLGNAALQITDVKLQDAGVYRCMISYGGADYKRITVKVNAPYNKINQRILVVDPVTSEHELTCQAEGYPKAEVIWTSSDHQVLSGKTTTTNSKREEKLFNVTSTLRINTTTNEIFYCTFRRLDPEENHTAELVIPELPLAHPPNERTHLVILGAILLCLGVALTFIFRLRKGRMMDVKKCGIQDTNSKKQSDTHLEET

[5] = biological target: human CD28, full length, expressed on transfected HEK293 cells (human) (UniProt P10747); test: flow cytometry, HEK293 cells transfected with human CD28

Sequence of Wild Type PD-L2 IgV-Fc (Q9BQ51 20-121): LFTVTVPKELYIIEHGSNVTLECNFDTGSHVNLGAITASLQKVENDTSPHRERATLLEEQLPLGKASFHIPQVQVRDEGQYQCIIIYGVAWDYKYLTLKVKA

IFN gamma levels pg/mL (MLR) [2]	Substance	other results
1500 pg/mL	PD-L2 E44D IgV-Fc (from UniProt Q9BQ51 20-121) (Fc fusion)	
1430 pg/mL	PD-L2 I13V/H15Q/Q82R IgV-Fc (from UniProt Q9BQ51 20-121) (Fc fusion)	
1460 pg/mL	PD-L2 H15Q/T47A/Q72H/R76G IgV-Fc (from UniProt Q9BQ51 20-121) (Fc fusion)	
1730 pg/mL	PD-L2 H15Q/R76G/I85F IgV-Fc (first entry) (from UniProt Q9BQ51 20-121) (Fc fusion)	
1530 pg/mL	PD-L2 I13V/H15Q/R76G/I85F IgV-Fc (from UniProt Q9BQ51 20-121) (Fc fusion)	
1850 pg/mL	PD-L2 H15Q/C23S/I86T IgV-Fc (from UniProt Q9BQ51 20-121) (Fc fusion)	
1310 pg/mL	PD-L2 S39I/V89D IgV-Fc (from UniProt Q9BQ51 20-121) (Fc fusion)	
1280 pg/mL	PD-L2 S67L/I85F IgV-Fc (from UniProt Q9BQ51 20-121) (Fc fusion)	
1320 pg/mL	PD-L2 H15Q/S67L/R76G/I85F IgV-Fc (from UniProt Q9BQ51 20-121) (Fc fusion)	
1470 pg/mL	PD-L2 I13V/H15Q/L33F/T47A/Q82R/V89D IgV-Fc (from UniProt Q9BQ51 20-121) (Fc fusion)	
1360 pg/mL	PD-L2 I13V/H15Q/I36V/T47A/S67L/V89D IgV-Fc (from UniProt Q9BQ51 20-121) (Fc fusion)	

More lines, now with the values behind:

Substance	IFN gamma levels pg/mL (MLR) [2]	other results
variant CD80 IgV-Fc Q33L/E35D/M47V/T62S/V68M/L85M (from UniProt P33681 35-141) (Fc fusion)		MFI at 33.3 nM [1]: 15 MFI
PD-L2 H15Q/Q72H/V89D IgV-Fc (from UniProt Q9BQ51 20-121) (Fc fusion)	1270 pg/mL	
variant CD80 IgV-Fc E35D/M47I/K54R/L85E (from UniProt P33681 35-141) (Fc fusion)		MFI at 33.3 nM [3]: 8660 MFI
variant CD80 IgV-Fc Q27L/E35D/M47I/T57I/L70Q/E88D (from UniProt P33681 35-141) (Fc fusion)		MFI at 22.2 nM [4]: 1050 MFI
Wild Type PD-L2 IgV-Fc (from UniProt Q9BQ51 20-121) (Fc fusion)	1380 pg/mL	
variant CD80 IgV-Fc Q33K/E35D/D46V/L85Q (from UniProt P33681 35-141) (Fc fusion)		MFI at 33.3 nM [3]: 8510 MFI
variant CD80 IgV-Fc N55I/T57I/I69F (from UniProt P33681 35-141) (Fc fusion)		MFI at 66.6 nM [5]: 1900 MFI
variant CD80 IgV-Fc E35D/M47L/V68M/E95V/L97Q (from UniProt P33681 35-141) (Fc fusion)		MFI at 33.3 nM [1]: 14 MFI
PD-L2 I13V/H15Q/E44V/T47A/Q82R/V89D IgV-Fc (from UniProt Q9BQ51 20-121) (Fc fusion)	1270 pg/mL	
PD-L2 H15Q/E44D/R76G/I85F IgV-Fc (from UniProt Q9BQ51 20-121) (Fc fusion)	1390 pg/mL	
variant CD80 IgV-Fc L70Q/A71D (from UniProt P33681 35-141) (Fc fusion)		MFI at 22.2 nM [4]: 1690 MFI
variant CD80 IgV-Fc V22L/E35G/A71D/L72P (from UniProt P33681 35-141) (Fc fusion)		MFI at 22.2 nM [4]: 1400 MFI
PD-L2 H15Q/N32D/S67L/V89D IgV-Fc (from UniProt Q9BQ51 20-121) (Fc fusion)	1290 pg/mL	
PD-L2 I13V/H15Q/T47A/Q82R/V89D IgV-Fc (from UniProt Q9BQ51 20-121) (Fc fusion)	1450 pg/mL and 1740 pg/mL	
variant CD80 IgV-Fc M47V/I69F/A71D/V83I (from UniProt P33681 35-141) (Fc fusion)		MFI at 22.2 nM [4]: 3400 MFI
PD-L2 H15Q/L33P/T47A/S67L/P71S/V89D IgV-Fc (from UniProt Q9BQ51 20-121) (Fc fusion)	1290 pg/mL	
PD-L2 I12V/I13V/H15Q/T47A/Q82R/V89D IgV-Fc (from UniProt Q9BQ51 20-121) (Fc fusion)	1530 pg/mL	
variant CD80 IgV-Fc E35D/T57A/A71D/L85Q (from UniProt P33681 35-141) (Fc fusion)		MFI at 22.2 nM [4]: 1760 MFI
variant CD80 IgV-Fc H18Y/A71D/L72P/E88V (from UniProt P33681 35-141) (Fc fusion)		MFI at 22.2 nM [4]: 1080 MFI
variant CD80 IgV-Fc A26E/E35D/M47L/L85Q (from UniProt P33681 35-141) (Fc fusion)		MFI at 66.6 nM [5]: 2270 MFI

Substance	IFN gamma levels pg/mL (MLR) [2]	other results
PD-L2 H15Q/T47A/K65R/S67L/Q82R/V89D IgV-Fc (from UniProt Q9BQ51 20-121) (Fc fusion)	1340 pg/mL	
variant CD80 IgV-Fc E35D/D46E/M47L/V68M/T79M/L85M/L97Q (from UniProt P33681 35-141) (Fc fusion)		MFI at 33.3 nM [1]: 14 MFI
variant CD80 IgV-Fc Q27H/E35G/A71D/L72P/T79I (from UniProt P33681 35-141) (Fc fusion)		MFI at 22.2 nM [4]: 1450 MFI
PD-L2 I13V/H15Q/T47A/Q72H/R76G IgV-Fc (from UniProt Q9BQ51 20-121) (Fc fusion)	1470 pg/mL	
variant CD80 IgV-Fc R29C/E35D/M47L/V68M/A71G/L85M (from UniProt P33681 35-141) (Fc fusion)		MFI at 33.3 nM [1]: 16 MFI
PD-L2 H15Q/S39I/I86T IgV-Fc (from UniProt Q9BQ51 20-121) (Fc fusion)	1420 pg/mL	
PD-L2 I13V/H15Q/E44D/V89D IgV-Fc (from UniProt Q9BQ51 20-121) (Fc fusion)	1380 pg/mL	
variant CD80 IgV-Fc E24D/E35D/M47L/V68M/E95V/L97Q (from UniProt P33681 35-141) (Fc fusion)		MFI at 33.3 nM [1]: 15 MFI
PD-L2 N24D IgV-Fc (from UniProt Q9BQ51 20-121) (Fc fusion)	1980 pg/mL	
variant CD80 IgV-Fc Q27L/Q33L/E35D/T41S/M47V/N48K/V68M/L85M (from UniProt P33681 35-141) (Fc fusion)		MFI at 33.3 nM [1]: 15 MFI
variant CD80 IgV-Fc Y31H/E35D/T41S/V68L/K93R/R94W (from UniProt P33681 35-141) (Fc fusion)		MFI at 66.6 nM [5]: 2450 MFI
PD-L2 I13V/S67L/Q82R/V89D IgV-Fc (from UniProt Q9BQ51 20-121) (Fc fusion)	1370 pg/mL	
PD-L2 E59G/Q82R IgV-Fc (from UniProt Q9BQ51 20-121) (Fc fusion)	1510 pg/mL	
variant CD80 IgV-Fc V22L/E35D/M43L/A71G/D76H (from UniProt P33681 35-141) (Fc fusion)		MFI at 22.2 nM [4]: 1850 MFI; MFI at 66.6 nM [5]: 1500 MFI
variant CD80 IgV-Fc V20I/A71D (from UniProt P33681 35-141) (Fc fusion)		MFI at 22.2 nM [4]: 3550 MFI
variant CD80 IgV-Fc Q33R/E35D/M38I/M47L/V68M (from UniProt P33681 35-141) (Fc fusion)		MFI at 33.3 nM [1]: 15 MFI
variant CD80 IgV-Fc T13R/M42V/M47I/A71D (from UniProt P33681 35-141) (Fc fusion)		MFI at 22.2 nM [4]: 1870 MFI
PD-L2 H15Q/K65R IgV-Fc (from UniProt Q9BQ51 20-121) (Fc fusion)	1510 pg/mL	
PD-L2 H15Q/S67L/R76G IgV-Fc (from UniProt Q9BQ51 20-121) (Fc fusion)	1430 pg/mL	
